Assay: yeast display, Sf9 membrane polyspecificity reagent, FACS + sequencing; frameworks hold sequencing errors
Procedure, shortened: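 Polyreactivity labels are assigned by the sorting gate from which each nanobody was recovered. The gates were low and high (top ~1%), set on anti-HA fluorescence for expression and streptavidin fluorescence for reagent binding. Before sorting, galactose-induced (36–48 hours) yeast display cells were stained for 1 hour at 4 °C with 10% biotinylated, detergent-solubilized Sf9 membrane reagent.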

Question: Which “polyreactivity (PSR sort gate)” value does the source give for “QVQLVESGGGLVQAGGSLRLSCAASGLIFSYKTMGWYRQAPGKERELVAAITSGGRTYYADSVKGRFTISRDNAKNTVYLQMNSLKPEDTAVYYCAVLSKWRYDYWGQGTQVTVSS” here?
Answer: high polyreactivity

Question: With “QVQLVESGGGLGQAGGSLRLSCAASGSTFYRFTRGWYRQAPGKERELVASIRWTGGRTNYADSVKGRFTISRDNAKNTVYLQMNSLKPEDTAVYYCAAYLKYPYGASYGSWGQGTQVTVSS” as the sequence, how does the “polyreactivity (PSR sort gate)” value read?
Answer: high polyreactivity

Question: With “QVQLVESGGGLVQAGGSLRLSCAASGRILPYYAMGWYRQAPGKERELVAAISYSGGSTYYADSVKGRFTLSRDNGKNTFYLQMNSLKPEDTAVYYCNARPVKASYVGYNYWGQGTQVTVSS” as the sequence, how does the “polyreactivity (PSR sort gate)” value read?
Answer: high polyreactivity

Question: Which “polyreactivity (PSR sort gate)” value does the source give for “QVQLVESGGGLVQAGGSLRLSCAASGFTFPWYAMGWYRQAPGKERELVAVISSSGGSTYYADSVKGRFTISRDNAKNTVYLQMNSLKPEDTAVYYCNKDYYKRAYLFGYWGQGTQVTVSS” here?
Answer: high polyreactivity

Question: Which “polyreactivity (PSR sort gate)” value does the source give for “QVQLLESGGGLVQAGGSLRLSCAASGRIFDPYAMGWYRQAPGKERELVAAITGSGDGTYYADTVKGRYTISRYNAKNTVYLQMNRLKPEDTAVYYCAAVGRDRFVIHDYWGQGTQVTVSS” here?
Answer: low polyreactivity

Question: Which “polyreactivity (PSR sort gate)” value does the source give for “QVQLGESGGGIVQAGGSLRLSCAASGRTFPYNVMGWYRQAPGKERELVAGITGSGDSTFYADSVKGRFTISRDHAKNTVYLQMNSLKPEDTAVYYCAARYRTLNDGYIRNYWGQGTQVTVSS” here?
Answer: low polyreactivity

Question: With “QVQLVESGGGLVQAGGSLRLSCAASGSIFKTNAMGWYRQAPGKERELVAGISNGGSTNYADSVKGRFTISRDNAKNTVYLQMNSLKPEDTAVYYCATDFAVTKMEYWGQGTQVTVSS” as the sequence, how does the “polyreactivity (PSR sort gate)” value read?
Answer: low polyreactivity

Question: Which “polyreactivity (PSR sort gate)” value does the source give for “QVQLEESGGGLVQAGGSLRLCCAASGSTFWAYVMGWYRQAPGKEMELVAAISKSGVRTHYADSVKGRFTISRDNAKNTVYLQMNSRKPEDTAVYYSAAGGVGNLDDYWGQGTQVTVSS” here?
Answer: high polyreactivity

Question: With “QVQLVESGGGLVQAGGSLRLICAASGSIFSGYAMGWYRQAPGKERELVAAITTSGGSTYYADSVKGRFTISRENAKNTVYLPMNSLNPEDTSVYYCAAGWLYSRYARVYYWGQGTQVTLSS” as the sequence, how does the “polyreactivity (PSR sort gate)” value read?
Answer: high polyreactivity

Question: For “QVQLVESGGGLVQAGGSLRLSCAAYGIIIGNNAMGCYRQAPGKERELVAAISRRGGSTYYADSVKGRFTISRDNAKNTVYLQMNSLKPEDTAVYYCAADIYRYNSYDYWGQGTQVTVSS”, which “polyreactivity (PSR sort gate)” value is on record?
Answer: low polyreactivity

Question: For “QVQLVESGGGLVQAGGSLRLSCAASGSTIPPYVMGWYRQAPGKERELVAAISSSTSSTYYADSVKGRFTISRDNAKNTVYLQMNSLKPEDTAVYYCADEYYTYEYIYDYWGQGTQVTVSS”, which “polyreactivity (PSR sort gate)” value is on record?
Answer: high polyreactivity

Question: Which “polyreactivity (PSR sort gate)” value does the source give for “QVQLVESGGGLVQAGGSLRLSCAASGFTFDTNAMGWYRQAPGKERELVAAISWGGDTTYYADSVKGRFTISRDNAKNTVYLQMNSLKTEDTAVYYCNVYWYDWWGYDYWGQGTQVTVSS” here?
Answer: high polyreactivity

Question: For “QVQLVESGGGLVQAGGSLRLSCAASGSTFAEYAMGLYRQAPGKERELVAAISRRGGSTYYADSVKGRFTFSRDNAKYSVYLQMNSLKPEDTAVYYCATDGYTPYRWLWWLMDYWGQGTQVTVSS”, which “polyreactivity (PSR sort gate)” value is on record?
Answer: high polyreactivity

Question: For “QVQLVESGGGLVQEGGSLRISCAASGSIFQSNAMGRYRQAPGKERERVAAISSSGVRTYYADSVKGRFTISRDNAKNTVYLQMNSLKREDTAVYYCATGWYYAGGPTYEYYYWGQGTQVTVSS”, which “polyreactivity (PSR sort gate)” value is on record?
Answer: low polyreactivity

Question: With “QVQLVESGGGLVQAGGSLRLSCAASGFTFLRYAMGWYRPAPGKERELVAVITYGGGSTYYADSVKGRFTISRDNAKNTVYLQMNSLKPEDTAVYYCALYPRRAGGDYWGQGTQVTVSS” as the sequence, how does the “polyreactivity (PSR sort gate)” value read?
Answer: high polyreactivity

Question: Which “polyreactivity (PSR sort gate)” value does the source give for “QVQLVESGGGLVQAGGSLRLSCAASGSTFNVNAMGWYRQAPGKETEFVAAITYRGGRTYYADSVKGRFTISRDNEKNTVYLQMNSLKPEDTAVYYCAADGYRKRGFDYWGQGTQVTVSS” here?
Answer: high polyreactivity

Question: Which “polyreactivity (PSR sort gate)” value does the source give for “QVQLVESGGGLVQAGGSLRLSCAASGSTFGVNAMGWYRPAPGKERELVAAISRSGTSTYYADSVKGRFTISRDNAKNTVYLLMNSLKPEDTAVYYCAAQYFSGYHKYGYWGQGTQVTVSS” here?
Answer: high polyreactivity

Question: Which “polyreactivity (PSR sort gate)” value does the source give for “QVQLEESGGGLVQAGGSIRLSCAASGSIFYKYVMGCYRQAPGKERELVAAISRGGGSTYYADSVKGRFTISRDNSKNTVYLQMNSLKPEDTAVYYCNAVVRPRYGHGFDHWGQGTQVTVSS” here?
Answer: high polyreactivity

Question: Which “polyreactivity (PSR sort gate)” value does the source give for “QAQLVESGGGLVQAGGSLRLSCAASGSIFVAYDKGWYREAPWKERELVAAINFDGTSTYYADSVKGRFTISRDNAKNTVYLQMNSLKPEDTAVYYCNKRVSPTFTGQYDYWGQGTQVTVSS” here?
Answer: low polyreactivity

Question: With “QVQLVESGGGLVQAGGSLRISCAASGFTVWGYAMGWYRQAPGKERELVAGITTRGGSTYYADSVKGRFTISRDNAKNTVYLQMNSLKPEDTAVYYCNVVSSTRTYRYDYWGQGTQVTVSS” as the sequence, how does the “polyreactivity (PSR sort gate)” value read?
Answer: high polyreactivity

Question: Which “polyreactivity (PSR sort gate)” value does the source give for “QVQLVQSGGGLVQAGGSLRLSCAASGRTFYYYPMGWYRPAPGKERELVAAIRWRGGRTYADSVKGRFTISRDNAKNTVYLQMNSLKPEDTAVYYCAVESFYRHASLYDYWGQGTQVTVSS” here?
Answer: high polyreactivity

Question: For “QVQLVESGGGLVQAGGSLRLSCAASGIIFFIYAMGWYRQAPGKERELVATISWTGGSTYYADSVKGRFTISRDNAKNTVYLQMNSLKPEDTAVYYCNADEWRWDEIIPYAVDYWGQGTQVTVSS”, which “polyreactivity (PSR sort gate)” value is on record?
Answer: low polyreactivity

Question: With “QVQLVESGGGLVQAGGSLRLSCAASGSTFSRYAMGWYRQAPGKERELVAAISSSGGSTYYADSVKGRFTISRDTAKNTVYLQMNSLKPEDTAVYYCAVSHKYYGRRDYWGQGTQVTVSS” as the sequence, how does the “polyreactivity (PSR sort gate)” value read?
Answer: high polyreactivity

Question: With “QVQLVESGGGLVQAGGSLRLSCAASGIIFTYYDMGWYRQAPGKERELVAGIDYSGTSTYYADSVKGRFTISRDNAKNTVYLQMNSLKPEDTAVYYCAAVPVWGGYFAGEYYYWGQGTQVTVSS” as the sequence, how does the “polyreactivity (PSR sort gate)” value read?
Answer: high polyreactivity

Question: Which “polyreactivity (PSR sort gate)” value does the source give for “QVQLVESGGGLVQAGGSLRLSCAASARTFYRYAMGWYRQAPGKERELVAAITRRSGNTYYADSVKGRFTISRDNAKNTVYLQMNSLKPEDTAVYYFNTVYPRRLIFGYWGQGTQVTVSS” here?
Answer: high polyreactivity

Question: Which “polyreactivity (PSR sort gate)” value does the source give for “QVQLVESGGGLVQAGGSLRLSCAASGFTFYYYAMGWYRPAPGKERELVAGITGSGGRTYYADSVKGRFTISRDNAKITVYLQMNSLKPEDTAVYYSNARSLWYDYWGQGTQVTVSS” here?
Answer: high polyreactivity

Question: With “QVQLVESGGGLVQAGGSLRLSCAASGIIFRLYAMGWYRQAPGKERELVAAISSGGSTYADSVKGRFTISRDNAKNTVYFQMNSLKPEDTAVYYCAAGRVWHLYWYNYWGQGTQVTVSS” as the sequence, how does the “polyreactivity (PSR sort gate)” value read?
Answer: high polyreactivity

Question: For “QVQLVESGGGLVQAGGSLRLSCAASGRIFSYYAMGWYRQAPGKERELVASISRGSSTYYADSVKGRFTISRDNAKNTVYLQMNSLKPEDTAVYYCARQWLGYPYTTYTGSPVEGYGYWGQGTQVTVSS”, which “polyreactivity (PSR sort gate)” value is on record?
Answer: high polyreactivity

Question: Which “polyreactivity (PSR sort gate)” value does the source give for “QVQLVESGGGLVQAGGSLRLSCAASGIIFKYYAMGSYRQAPGKERELVAAITRSGGSTYYADSVKGRFTISRDNAKNTVYLQMNSLKPVDTGVYYCAAQTGYSYGITWQFTKYNYWGQGTQVTVSS” here?
Answer: low polyreactivity

Question: For “QVQLGESGGGLVQAGGSLRLICAASGFIFTTYVMGWYRQAPGKERELVAVISRSGGRTYYADSVKGRFTISRDNEKYTVYLLMNSLKPEDTAVYYCNVDIPVLSHIEYYYWGQGTQVTVSS”, which “polyreactivity (PSR sort gate)” value is on record?
Answer: low polyreactivity

Question: With “QVQHVESRGGLVQAGGSLRLSCAASGLILSGYTMGWYRPAPGKERELVAAISRSGGSTYYADSVKGRFTISRDNAKNTVYLQMNSLKPEDTAVYYCAKVPIYRYGVWAMNYWGQGTQVTVSS” as the sequence, how does the “polyreactivity (PSR sort gate)” value read?
Answer: high polyreactivity

Question: Which “polyreactivity (PSR sort gate)” value does the source give for “QVQLVESGGGLVQAGGSLRLSCAASGFTFVFYAMGWYRQAPGKERELVAAISSGGGGTYYADSVKGRFTISRDNAKNTVYLQMNSLKPEDTAVYYCNTRYHKVYYGNDYWGQGTQVTVSS” here?
Answer: high polyreactivity

Question: With “QVQLVESGGGLVQAGGSLRLSCAASGRTIKVYAMGWYRQAPGKERELVAAISYSGAGTRYADSVKGRFTISRDNAKNTVYLQMNSLKPEDTAVYYCNTDAWARVKRYEYWGQGTQVTVSS” as the sequence, how does the “polyreactivity (PSR sort gate)” value read?
Answer: low polyreactivity

Question: For “QVQIVDSGGGLVQAGGSLSLSCAASGSTFRGYAMGWYRQAPGKERELVAAITGSGDRTRYADSVKGRFTISRDNAKNTVYLQKNSLKPADTAVNYCAKVWPHWAYYSWGQGTQVTLSS”, which “polyreactivity (PSR sort gate)” value is on record?
Answer: high polyreactivity

Question: For “QVQLVESGGGLVQAGGSLRLSCAASGLTFGVYAMGWSRQAPGKERELVAAIDLSDDITYYADSVKGRFTISRDNAKNTVYLQMNSLKPEDTAVYYSAAEYYLYSTYTVSYWKYDYWGQGTQVTVSS”, which “polyreactivity (PSR sort gate)” value is on record?
Answer: high polyreactivity

Question: Which “polyreactivity (PSR sort gate)” value does the source give for “EVQLVESGGGLVQAGGSLRLICAASGSIFRDNAMGWYRQAPGKERELVARITWSGTRTYYADSVKGRFTISRDKAKNTVYLQMNSLKPEDTAVYYCNKDRRTIPPSGNDYWGQGTQVTVSS” here?
Answer: low polyreactivity

Question: For “QVQLVESGGGLVQAGGSLRLSCAAYGSIFDSNTMGWYRQAPGKERELVAGISTGGSTNYADSVKGRFTISRDNAKNTVYLQMNSQKPEDTAVYYCNADLGSSYDWGQGTQVTVSS”, which “polyreactivity (PSR sort gate)” value is on record?
Answer: low polyreactivity

Question: With “QVQRVESGGGLVQAGGRLRLICAAAGYTFDYYAMGWYRQAPGKERELVAAISRSGTRTYYADSVKGRFTISRDNAKNTVYLQMYSLKPEVNAVYYLKKAYYLYAGDYWGQGTQVTVSS” as the sequence, how does the “polyreactivity (PSR sort gate)” value read?
Answer: high polyreactivity

Question: For “QVQLVESGGGLVQAGGSLRLSCAASGYTVRFNAMGWYRQAPGKEREFVAAIDFGGAGTYYADSVKGRFTISRDNAKNTVYLQMNSLKPEDTAVYYCNARDGVTTEFDYWGQGTQVTVSS”, which “polyreactivity (PSR sort gate)” value is on record?
Answer: low polyreactivity

Question: Which “polyreactivity (PSR sort gate)” value does the source give for “QVQLVESGGGLVQAGGSLRLSCAASGSTFYLYGMGWYRQAPGKERELVAAITYSGGSTYYADSVKGRFTISRDNAKNTVYLQMNSLKPEDTAVYYCNARSQWRSSRFYYWGQGTQVTVPS” here?
Answer: high polyreactivity

Question: With “QVQLVESGGGLVQAGGSLRLSCAASGTFQVNAMGWYIQAPGKERELVAAINSNGGSTYYADSVKGRFTISRDNAKNTVYLQMNSLKPEDTAVYYCAAVYQRRRSYYWGQGTQVTVSS” as the sequence, how does the “polyreactivity (PSR sort gate)” value read?
Answer: high polyreactivity

From the nanobody polyreactivity screen of Harvey et al. (2022)
